From US20240066131A1 (Protagonist Therapeutics, Inc., priority 2020, published 2024)
Starred links: 1 amine or outer side, 2 acyl side, 3 side chain; linkers in the order of their positions; H or OH if unused. Positions of bridges follow the written chain, without caps; N, C: chain ends. Non-standard residues stand in square brackets, D forms with d. Groups on a side chain read outwards from the residue. *: point of attachment. Gal = N6-(4-(galactopyranosyloxy)butanoyl) on the lysine side chain; C18 diacid = O=C(O)CCCCCCCCCCCCCCCCC(=O)*; Dip = N[C@H](C(=O)O)C(c1ccccc1)c1ccccc1; γGlu = O=C(O)[C@H](CCC(=O)[*:2])N[*:1]; Palmitoyl = CCCCCCCCCCCCCCCC(=O)*; Myristoyl = CCCCCCCCCCCCCC(=O)*; β3hF = N[C@H](CC(=O)O)Cc1ccccc1; Isovaleryl = CC(C)CC(=O)*; Dap = NC[C@H](N)C(=O)O; AEEA = NCCOCCOCC(=O)O; Ahx = NCCCCCC(=O)O

T1: human ferroportin (SLC40A1) fused in frame with GFP, stably expressed in HEK293 cells (human, UniProt Q9NP59 1-571)
T1 sequence (looked up): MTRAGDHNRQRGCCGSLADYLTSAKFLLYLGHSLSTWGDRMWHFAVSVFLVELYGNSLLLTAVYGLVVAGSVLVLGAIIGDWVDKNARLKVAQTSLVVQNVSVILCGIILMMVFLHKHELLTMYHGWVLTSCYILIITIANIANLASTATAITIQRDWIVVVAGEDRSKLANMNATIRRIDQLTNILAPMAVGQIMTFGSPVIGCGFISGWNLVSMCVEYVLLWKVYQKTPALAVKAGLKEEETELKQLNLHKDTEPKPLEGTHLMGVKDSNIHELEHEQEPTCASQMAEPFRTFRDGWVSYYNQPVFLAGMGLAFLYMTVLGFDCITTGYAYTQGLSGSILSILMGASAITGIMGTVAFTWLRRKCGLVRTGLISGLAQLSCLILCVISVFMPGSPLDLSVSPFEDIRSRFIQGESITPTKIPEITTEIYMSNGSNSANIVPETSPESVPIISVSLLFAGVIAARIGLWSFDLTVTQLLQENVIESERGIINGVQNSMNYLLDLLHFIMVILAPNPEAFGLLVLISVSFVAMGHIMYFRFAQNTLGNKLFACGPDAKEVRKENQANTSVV


Target: T1, human ferroportin (SLC40A1) fused in …
Assay: cell-based or functional assay

Row | FPN IC50 [nM] | Binder
1 | > 10000 | Isovaleryl-ETHFP[Dap]IK([AEEA-AEEA-γGlu-C18 diacid])FEPRSKGEK-NH2 (lactam 6-16; SMILES CC[C@H](C)[C@@H]1NC(=O)[C@@H](NC(=O)[C@@H]2CCCN2C(=O)[C@H](Cc2ccccc2)NC(=O)[C@H](Cc2c[nH]cn2)NC(=O)[C@@H](NC(=O)[C@H](CCC(=O)O)NC(=O)CC(C)C)[C@@H](C)O)CNC(=O)CC[C@@H](C(=O)N[C@@H](CCCCN)C(N)=O)NC(=O)CNC(=O)[C@H](CCCCN)NC(=O)[C@H](CO)NC(=O)[C@H](CCCNC(=N)N)NC(=O)[C@@H]2CCCN2C(=O)[C@H](CCC(=O)O)NC(=O)[C@H](Cc2ccccc2)NC(=O)[C@H](CCCCNC(=O)COCCOCCNC(=O)COCCOCCNC(=O)CC[C@H](NC(=O)CCCCCCCCCCCCCCCCC(=O)O)C(=O)O)NC1=O) [Isovaleric Acid-E-T-H-F-P-Dap-I-[Lys(1PEG2_1PEG2_IsoGlu_C18_Diacid)]-F-E-P-R-S-K-G-E-K-NH2]
2 | > 3000 | Ac-K([AEEA-AEEA-Ahx-C18 diacid])TH[Dip]PAI[dK][β3hF]-NH2 (SMILES CC[C@H](C)[C@H](NC(=O)[C@H](C)NC(=O)[C@@H]1CCCN1C(=O)[C@@H](NC(=O)[C@H](Cc1c[nH]cn1)NC(=O)[C@@H](NC(=O)[C@H](CCCCNC(=O)COCCOCCNC(=O)COCCOCCNC(=O)CCCCCNC(=O)CCCCCCCCCCCCCCCCC(=O)O)NC(C)=O)[C@@H](C)O)C(c1ccccc1)c1ccccc1)C(=O)N[C@H](CCCCN)C(=O)N[C@H](CC(N)=O)Cc1ccccc1) [Ac-[Lys(1PEG2_1PEG2_Ahx_C18_Diacid)]-T-H-[Dpa]-P-A-I-[(D)Lys]-[bhPhe]-NH2]
3 | 1160 | Isovaleryl-ETHFPAIK([Ahx-Myristoyl])FEPR[dS]-NH2 (SMILES CCCCCCCCCCCCCC(=O)NCCCCCC(=O)NCCCC[C@H](NC(=O)[C@@H](NC(=O)[C@H](C)NC(=O)[C@@H]1CCCN1C(=O)[C@H](Cc1ccccc1)NC(=O)[C@H](Cc1c[nH]cn1)NC(=O)[C@@H](NC(=O)[C@H](CCC(=O)O)NC(=O)CC(C)C)[C@@H](C)O)[C@@H](C)CC)C(=O)N[C@@H](Cc1ccccc1)C(=O)N[C@@H](CCC(=O)O)C(=O)N1CCC[C@H]1C(=O)N[C@@H](CCCNC(=N)N)C(=O)N[C@H](CO)C(N)=O) [Isovaleric Acid-E-T-H-F-P-A-I-[Lys(Ahx_C14_acid)]-F-E-P-R-[(D)Ser]-NH2]
4 | 689 | Isovaleryl-ETHFPAIK([Ahx-Myristoyl])FEPRSKGAK-NH2 [Isovaleric Acid-E-T-H-F-P-A-I-[Lys(Ahx_C14_acid)]-F-E-P-R-S-K-G-A-K-NH2]
5 | 822 | Isovaleryl-ETHFPAIK([γGlu-Myristoyl])FEPRSKGAK-NH2 [Isovaleric Acid-E-T-H-F-P-A-I-[Lys(IsoGlu_C14_acid)]-F-E-P-R-S-K-G-A-K-NH2]
6 | 758 | Isovaleryl-K(Gal)TH[Dip]PK([Ahx-Palmitoyl])[β3hF]-NH2 [Isovaleric Acid-[Lys(Gal-T-H-[Dpa]-P-[Lys(Ahx_Palm)]-[bhPhe]-NH2]
7 | 3370 | Ac-K([AEEA-AEEA-γGlu-C18 diacid])TH[Dip]PAI[dK][β3hF]-NH2 (SMILES CC[C@H](C)[C@H](NC(=O)[C@H](C)NC(=O)[C@@H]1CCCN1C(=O)[C@@H](NC(=O)[C@H](Cc1c[nH]cn1)NC(=O)[C@@H](NC(=O)[C@H](CCCCNC(=O)COCCOCCNC(=O)COCCOCCNC(=O)CC[C@H](NC(=O)CCCCCCCCCCCCCCCCC(=O)O)C(=O)O)NC(C)=O)[C@@H](C)O)C(c1ccccc1)c1ccccc1)C(=O)N[C@H](CCCCN)C(=O)N[C@H](CC(N)=O)Cc1ccccc1) [Ac-[Lys(1PEG2_1PEG2_IsoGlu_C18_Diacid)]-T-H-[Dpa]-P-A-I-[(D)Lys]-[bhPhe]-NH2]
8 | 2160 | Isovaleryl-K([AEEA-AEEA-γGlu-C18 diacid])TH[Dip]PAI[dK][β3hF]-NH2 (SMILES CC[C@H](C)[C@H](NC(=O)[C@H](C)NC(=O)[C@@H]1CCCN1C(=O)[C@@H](NC(=O)[C@H](Cc1c[nH]cn1)NC(=O)[C@@H](NC(=O)[C@H](CCCCNC(=O)COCCOCCNC(=O)COCCOCCNC(=O)CC[C@H](NC(=O)CCCCCCCCCCCCCCCCC(=O)O)C(=O)O)NC(=O)CC(C)C)[C@@H](C)O)C(c1ccccc1)c1ccccc1)C(=O)N[C@H](CCCCN)C(=O)N[C@H](CC(N)=O)Cc1ccccc1) [Isovaleric Acid-[Lys(1PEG2_1PEG2_IsoGlu_C18_Diacid)]-T-H-[Dpa]-P-A-I-[(D)Lys]-[bhPhe]-NH2]
9 | 1070 | Isovaleryl-ETHFPAIK([Ahx-C12 acid])FEPRSKGAK-NH2 [Isovaleric Acid-E-T-H-F-P-A-I-[Lys(Ahx_C12_acid)]-F-E-P-R-S-K-G-A-K-NH2]
10 | 1280 | Isovaleryl-K([AEEA-AEEA-Ahx-C18 diacid])TH[Dip]PAI[dK][β3hF]-NH2 (SMILES CC[C@H](C)[C@H](NC(=O)[C@H](C)NC(=O)[C@@H]1CCCN1C(=O)[C@@H](NC(=O)[C@H](Cc1c[nH]cn1)NC(=O)[C@@H](NC(=O)[C@H](CCCCNC(=O)COCCOCCNC(=O)COCCOCCNC(=O)CCCCCNC(=O)CCCCCCCCCCCCCCCCC(=O)O)NC(=O)CC(C)C)[C@@H](C)O)C(c1ccccc1)c1ccccc1)C(=O)N[C@H](CCCCN)C(=O)N[C@H](CC(N)=O)Cc1ccccc1) [Isovaleric Acid-[Lys(1PEG2_1PEG2_Ahx_C18_Diacid)]-T-H-[Dpa]-P-A-I-[(D)Lys]-[bhPhe]-NH2]

Second part, the binder before the results:

Row | Binder | FPN IC50 [nM]
11 | Isovaleryl-ETHFPAIK([Ahx-C10 acid])FEPRSKGAK-NH2 [Isovaleric Acid-E-T-H-F-P-A-I-[Lys(Ahx_C10_acid)]-F-E-P-R-S-K-G-A-K-NH2] | > 3000
12 | Isovaleryl-ETHFPEIK([AEEA-AEEA-γGlu-C18 diacid])FEPRSKG[Dap]K-NH2 (lactam 6-16; SMILES CC[C@H](C)[C@@H]1NC(=O)[C@@H](NC(=O)[C@@H]2CCCN2C(=O)[C@H](Cc2ccccc2)NC(=O)[C@H](Cc2c[nH]cn2)NC(=O)[C@@H](NC(=O)[C@H](CCC(=O)O)NC(=O)CC(C)C)[C@@H](C)O)CCC(=O)NC[C@@H](C(=O)N[C@@H](CCCCN)C(N)=O)NC(=O)CNC(=O)[C@H](CCCCN)NC(=O)[C@H](CO)NC(=O)[C@H](CCCNC(=N)N)NC(=O)[C@@H]2CCCN2C(=O)[C@H](CCC(=O)O)NC(=O)[C@H](Cc2ccccc2)NC(=O)[C@H](CCCCNC(=O)COCCOCCNC(=O)COCCOCCNC(=O)CC[C@H](NC(=O)CCCCCCCCCCCCCCCCC(=O)O)C(=O)O)NC1=O) [Isovaleric Acid-E-T-H-F-P-E-I-[Lys(1PEG2_1PEG2_IsoGlu_C18_Diacid)]-F-E-P-R-S-K-G-Dap-K-NH2] | > 10000
13 | Isovaleryl-ETHFPAIK([Ahx-Myristoyl])FEPRSKGA[dK]-NH2 (SMILES CCCCCCCCCCCCCC(=O)NCCCCCC(=O)NCCCC[C@H](NC(=O)[C@@H](NC(=O)[C@H](C)NC(=O)[C@@H]1CCCN1C(=O)[C@H](Cc1ccccc1)NC(=O)[C@H](Cc1c[nH]cn1)NC(=O)[C@@H](NC(=O)[C@H](CCC(=O)O)NC(=O)CC(C)C)[C@@H](C)O)[C@@H](C)CC)C(=O)N[C@@H](Cc1ccccc1)C(=O)N[C@@H](CCC(=O)O)C(=O)N1CCC[C@H]1C(=O)N[C@@H](CCCNC(=N)N)C(=O)N[C@@H](CO)C(=O)N[C@@H](CCCCN)C(=O)NCC(=O)N[C@@H](C)C(=O)N[C@H](CCCCN)C(N)=O) [Isovaleric Acid-E-T-H-F-P-A-I-[Lys(Ahx_C14_acid)]-F-E-P-R-S-K-G-A-[(D)Lys]-NH2] | 1160
14 | Isovaleryl-ETHFPDIK([AEEA-AEEA-γGlu-C18 diacid])FEPRSKG[Dap]K-NH2 (lactam 6-16; SMILES CC[C@H](C)[C@@H]1NC(=O)[C@@H](NC(=O)[C@@H]2CCCN2C(=O)[C@H](Cc2ccccc2)NC(=O)[C@H](Cc2c[nH]cn2)NC(=O)[C@@H](NC(=O)[C@H](CCC(=O)O)NC(=O)CC(C)C)[C@@H](C)O)CC(=O)NC[C@@H](C(=O)N[C@@H](CCCCN)C(N)=O)NC(=O)CNC(=O)[C@H](CCCCN)NC(=O)[C@H](CO)NC(=O)[C@H](CCCNC(=N)N)NC(=O)[C@@H]2CCCN2C(=O)[C@H](CCC(=O)O)NC(=O)[C@H](Cc2ccccc2)NC(=O)[C@H](CCCCNC(=O)COCCOCCNC(=O)COCCOCCNC(=O)CC[C@H](NC(=O)CCCCCCCCCCCCCCCCC(=O)O)C(=O)O)NC1=O) [Isovaleric Acid-E-T-H-F-P-D-I-[Lys(1PEG2_1PEG2_IsoGlu_C18_Diacid)]-F-E-P-R-S-K-G-Dap-K-NH2] | > 10000
15 | Isovaleryl-ETHFP[Dap]IK([AEEA-AEEA-γGlu-C18 diacid])FEPRSKGDK-NH2 (lactam 6-16; SMILES CC[C@H](C)[C@@H]1NC(=O)[C@@H](NC(=O)[C@@H]2CCCN2C(=O)[C@H](Cc2ccccc2)NC(=O)[C@H](Cc2c[nH]cn2)NC(=O)[C@@H](NC(=O)[C@H](CCC(=O)O)NC(=O)CC(C)C)[C@@H](C)O)CNC(=O)C[C@@H](C(=O)N[C@@H](CCCCN)C(N)=O)NC(=O)CNC(=O)[C@H](CCCCN)NC(=O)[C@H](CO)NC(=O)[C@H](CCCNC(=N)N)NC(=O)[C@@H]2CCCN2C(=O)[C@H](CCC(=O)O)NC(=O)[C@H](Cc2ccccc2)NC(=O)[C@H](CCCCNC(=O)COCCOCCNC(=O)COCCOCCNC(=O)CC[C@H](NC(=O)CCCCCCCCCCCCCCCCC(=O)O)C(=O)O)NC1=O) [Isovaleric Acid-E-T-H-F-P-Dap-I-[Lys(1PEG2_1PEG2_IsoGlu_C18_Diacid)]-F-E-P-R-S-K-G-D-K-NH2] | 6110
16 | Isovaleryl-ETHFPAIK([Ahx-Myristoyl])FEPRSKG[dA]-NH2 (SMILES CCCCCCCCCCCCCC(=O)NCCCCCC(=O)NCCCC[C@H](NC(=O)[C@@H](NC(=O)[C@H](C)NC(=O)[C@@H]1CCCN1C(=O)[C@H](Cc1ccccc1)NC(=O)[C@H](Cc1c[nH]cn1)NC(=O)[C@@H](NC(=O)[C@H](CCC(=O)O)NC(=O)CC(C)C)[C@@H](C)O)[C@@H](C)CC)C(=O)N[C@@H](Cc1ccccc1)C(=O)N[C@@H](CCC(=O)O)C(=O)N1CCC[C@H]1C(=O)N[C@@H](CCCNC(=N)N)C(=O)N[C@@H](CO)C(=O)N[C@@H](CCCCN)C(=O)NCC(=O)N[C@H](C)C(N)=O) [Isovaleric Acid-E-T-H-F-P-A-I-[Lys(Ahx_C14_acid)]-F-E-P-R-S-K-G-[(D)Ala]-NH2] | 1070
17 | Isovaleryl-K(GalNH)TH[Dip]PAIK([Ahx-Palmitoyl])[β3hF]-NH2 [Isovaleric Acid-[Lys(GalNH-T-H-[Dpa]-P-A-I-[Lys(Ahx_Palm)]-[bhPhe]-NH2] | 150
